Reference: PMC12225687

Experiments:
Assay in all cases: flow cytometry on cells; PE-labelled pMHC multimer (HLA-A*02:01 with the … peptide) stained on Jurkat J1601 cells (human CD8α/β, TCRα/β CRISPR-KO) electroporated with TCR RNA, after overnight incubation; read-out % multimer+CD8+ cells, averages of two independent replicates
1G4-c53c50 TCR (human) = target: 1G4-c53c50 TCR (human)
1G4-c50 TCR (human) = target: 1G4-c50 TCR (human)
1G4 TCR (human) = target: 1G4 TCR (human)

HLA-A*02:01 with the NY-ESO-1 157-165 peptide …, PE-labelled multimer (from UniProt P61769 21-119) (peptide-MHC)
% of multimer+CD8+ Jurkat cells (1G4-c53c50 TCR (human)): 99.1%
% of multimer+CD8+ Jurkat cells (1G4-c50 TCR (human)): 99.6%
% of multimer+CD8+ Jurkat cells (1G4 TCR (human)): 90.9%
